Results reported in patent publication US20080161234A1, “Composition Comprising Lactic Acid and Lactoferrin” (priority 2004, published 2008).

What was measured:
C. albicans (ATCC 64549) = test: Microbicidal microplate assay (viable counts), C. albicans; type: cell-based
Description: The bacterial strains S. aureus 1800 (CCUG 1800), E. coli 06, and the yeast C. albicans (ATCC 64549) have been used in the microplate assay. All microorganisms were cultured in brain heart infusion medium (BHI) on a shaker over night at 37° C. A volume of the culture was transferred to a new tube with BHI and incubated for two more h on the shaker. The bacteria were harvested in the log phase, washed once and thereafter suspended in the broth used for the microplate assay. The suspension was adjusted spectrophotometrically and diluted to a concentration of approximately 4×10^6 cells per ml at 650 nm. Washed cells were suspended in 0.2% BP (pH 7.0) or BHI medium diluted 1/10 (0.34%, pH 6.7-6.9) (Difco, USA). The concentration of bacterial or fungal cells was spectrophotometrically adjusted. LF or peptide, serially diluted in BHIdil or BP by twofold steps (unless otherwise stated), were added in triplicate to the wells of a microtiterplate (200 ul per well). The bacterial or yeast cell solutions were added in 10 ul volumes to give a final concentration of approximately 2×10^5 cells per ml. The concentration of the stock solution was always checked by viable counts. The microplate was incubated at 37° C. in a humid chamber for 2 h unless otherwise stated. Five ul were taken from each well and added as a drop onto a blood agar plate and incubated over night at 37° C. In some experiments more thorough viable counts were performed and the killing was expressed as remaining colony forming units in relation to the inoculum. The lower limit for detection of microorganisms was 200 CFU/ml. The antimicrobial activity of human LF was analysed by the microbicidal assay described above. Different microbes such as C. albicans, E. coli and S. aureus were analysed with respect to their survival in lactate (not containing the inert gel base, which makes the gel unsuitable for the microbicidal assay) containing LF. […] LF was incubated together with various concentrations of lactate diluted in 0.2% bactopeptone and C. albicans for 2 h. Thereafter each solution was analysed for viable counts.

E. coli 06 = test: Microbicidal microplate-droplet assay, E. coli; type: cell-based; parameters: key to E. coli killing, growth grade in droplet assay: +++ means that the number of colony forming units (CFU) contained within 5 ul of a droplet formed a smooth layer of bacteria; ++ means that a “ruffled” area is seen; 0 means that no CFU were found in triplicate samples of 5 ul (>99.95 killed of the inoculum)
Description: The bacterial strains S. aureus 1800 (CCUG 1800), E. coli 06, and the yeast C. albicans (ATCC 64549) have been used in the microplate assay. All microorganisms were cultured in brain heart infusion medium (BHI) on a shaker over night at 37° C. A volume of the culture was transferred to a new tube with BHI and incubated for two more h on the shaker. The bacteria were harvested in the log phase, washed once and thereafter suspended in the broth used for the microplate assay. The suspension was adjusted spectrophotometrically and diluted to a concentration of approximately 4×10^6 cells per ml at 650 nm. Washed cells were suspended in 0.2% BP (pH 7.0) or BHI medium diluted 1/10 (0.34%, pH 6.7-6.9) (Difco, USA). The concentration of bacterial or fungal cells was spectrophotometrically adjusted. LF or peptide, serially diluted in BHIdil or BP by twofold steps (unless otherwise stated), were added in triplicate to the wells of a microtiterplate (200 ul per well). The bacterial or yeast cell solutions were added in 10 ul volumes to give a final concentration of approximately 2×10^5 cells per ml. The concentration of the stock solution was always checked by viable counts. The microplate was incubated at 37° C. in a humid chamber for 2 h unless otherwise stated. Five ul were taken from each well and added as a drop onto a blood agar plate and incubated over night at 37° C. In some experiments more thorough viable counts were performed and the killing was expressed as remaining colony forming units in relation to the inoculum. The lower limit for detection of microorganisms was 200 CFU/ml. The antimicrobial activity of human LF was analysed by the microbicidal assay described above. Different microbes such as C. albicans, E. coli and S. aureus were analysed with respect to their survival in lactate (not containing the inert gel base, which makes the gel unsuitable for the microbicidal assay) containing LF.

B1: LF: LF from human milk purchased from Sigma; single chain iron-binding glycoprotein (protein, UniProt P02788 20-710, looked up)
Lactotransferrin: GRRRSVQWCAVSQPEATKCFQWQRNMRKVRGPPVSCIKRDSPIQCIQAIAENRADAVTLDGGFIYEAGLAPYKLRPVAAEVYGTERQPRTHYYAVAVVKKGGSFQLNELQGLKSCHTGLRRTAGWNVPIGTLRPFLNWTGPPEPIEAAVARFFSASCVPGADKGQFPNLCRLCAGTGENKCAFSSQEPYFSYSGAFKCLRDGAGDVAFIRESTVFEDLSDEAERDEYELLCPDNTRKPVDKFKDCHLARVPSHAVVARSVNGKEDAIWNLLRQAQEKFGKDKSPKFQLFGSPSGQKDLLFKDSAIGFSRVPPRIDSGLYLGSGYFTAIQNLRKSEEEVAARRARVVWCAVGEQELRKCNQWSGLSEGSVTCSSASTTEDCIALVLKGEADAMSLDGGYVYTAGKCGLVPVLAENYKSQQSSDPDPNCVDRPVEGYLAVAVVRRSDTSLTWNSVKGKKSCHTAVDRTAGWNIPMGLLFNQTGSCKFDEYFSQSCAPGSDPRSNLCALCIGDEQGENKCVPNSNERYYGYTGAFRCLAENAGDVAFVKDVTVLQNTDGNNNEAWAKDLKLADFALLCLDGKRKPVTEARSCHLAMAPNHAVVSRMDKVERLKQVLLHQQAKFGRNGSDCPDKFCLFQSETKNLLFNDNTECLARLHGKTTYEKYLGPQYVAGITNLKKCSTSPLLEACEFLRK
C. albicans (ATCC 64549); LF 2 mg/ml in lactate 1%, 2 h
  inoculate killed: 92%
C. albicans (ATCC 64549); LF 5 mg/ml in lactate 1%, 2 h
  inoculate killed: 98.2%
C. albicans (ATCC 64549); LF in lactate concentrations 0.2%, 0.04% and 0%, 0.2% bactopeptone, 2 h
  reduction of yeast cells: 99.9%
C. albicans (ATCC 64549); lactate diluted fivefold or more (≦1%), all LF concentrations except 0.5 mg at 1% lactate
  effect of LF on antimicrobial effect of lactate against C. albicans: enhanced the antimicrobial effect of lactate
C. albicans (ATCC 64549); without lactate, 0.25 and 0.125 mg/ml, 2 h of incubation
  microbicidal activity against C. albicans, LF compared with rHLF: somewhat more active
E. coli 06; HLF 500 ug/ml, lactate 0.2%, 2 h incubation
  E. coli killing, growth grade in droplet assay: ++
E. coli 06; HLF 500 ug/ml, lactate 0.2%, 5 h incubation
  E. coli killing, percentage of bacteria remaining in relation to the inoculum: 4%
E. coli 06; HLF 500 ug/ml, lactate 1%, 2 h incubation
  E. coli killing, growth grade in droplet assay: ++
E. coli 06; HLF 500 ug/ml, lactate 1%, 5 h incubation
  E. coli killing, percentage of bacteria remaining in relation to the inoculum: 5%
E. coli 06; HLF 500 ug/ml, lactate 5%, 2 h incubation
  E. coli killing, percentage of bacteria remaining in relation to the inoculum: 0 (0 means that no CFU were found in triplicate samples of 5 ul (>99.95 killed of the inoculum))
E. coli 06; HLF 500 ug/ml, lactate 5%, 5 h incubation
  E. coli killing, percentage of bacteria remaining in relation to the inoculum: 0 (0 means that no CFU were found in triplicate samples of 5 ul (>99.95 killed of the inoculum))
E. coli 06; HLF 500 ug/ml, no lactal, 2 h incubation
  E. coli killing, growth grade in droplet assay: +++
E. coli 06; HLF 500 ug/ml, no lactal, 5 h incubation
  E. coli killing, growth grade in droplet assay: +++
E. coli 06; HLF 2000 ug/ml, lactate 0.2%, 5 h incubation
  E. coli killing, percentage of bacteria remaining in relation to the inoculum: 5%
E. coli 06; HLF 2000 ug/ml, lactate 1%, 5 h incubation
  E. coli killing, percentage of bacteria remaining in relation to the inoculum: 9%
E. coli 06; HLF 2000 ug/ml, lactate 5%, 2 h incubation
  E. coli killing, percentage of bacteria remaining in relation to the inoculum: 0 (0 means that no CFU were found in triplicate samples of 5 ul (>99.95 killed of the inoculum))
E. coli 06; HLF 2000 ug/ml, lactate 5%, 5 h incubation
  E. coli killing, percentage of bacteria remaining in relation to the inoculum: 0 (0 means that no CFU were found in triplicate samples of 5 ul (>99.95 killed of the inoculum))
E. coli 06; HLF 2000 ug/ml, no lactal, 2 h incubation
  E. coli killing, growth grade in droplet assay: ++
E. coli 06; HLF 2000 ug/ml, no lactal, 5 h incubation
  E. coli killing, percentage of bacteria remaining in relation to the inoculum: 3%
E. coli 06; HLF 5000 ug/ml, lactate 0.2%, 2 h incubation
  E. coli killing, growth grade in droplet assay: ++
E. coli 06; HLF 5000 ug/ml, lactate 0.2%, 5 h incubation
  E. coli killing, percentage of bacteria remaining in relation to the inoculum: 0.4%
E. coli 06; HLF 5000 ug/ml, lactate 1%, 5 h incubation
  E. coli killing, percentage of bacteria remaining in relation to the inoculum: 16%
E. coli 06; HLF 5000 ug/ml, lactate 5%, 2 h incubation
  E. coli killing, percentage of bacteria remaining in relation to the inoculum: 0 (0 means that no CFU were found in triplicate samples of 5 ul (>99.95 killed of the inoculum))
E. coli 06; HLF 5000 ug/ml, lactate 5%, 5 h incubation
  E. coli killing, percentage of bacteria remaining in relation to the inoculum: 0 (0 means that no CFU were found in triplicate samples of 5 ul (>99.95 killed of the inoculum))
E. coli 06; HLF 5000 ug/ml, no lactal, 2 h incubation
  E. coli killing, growth grade in droplet assay: ++
E. coli 06; HLF 5000 ug/ml, no lactal, 5 h incubation
  E. coli killing, percentage of bacteria remaining in relation to the inoculum: 2%
